{
  "source": "paper PMC3260182",
  "about": "“Stabilisation of the Fc Fragment of Human IgG1 by Engineered Intradomain Disulfide Bonds” (PLoS ONE, 2012)",
  "proteins": {"B1": {"name": "Fc fragment of human IgG1 with the CysP2 and CysP4 disulfide bonds combined (domain or fragment)", "chain": "EFTCPPCPAPELLGGPSVFLFPPKPKDTLMISRTPEVTCVVVDVSHEDPEVKFNWYVDGVEVHNAKTKPREEQYNSTYRVVSVLTVLHQDWLNGKEYKCKVSNKALPAPIEKTISKAKGQCREPQVYTLPPSRDELTKNQVSLTCLVKGFYPCDIAVEWESNGQPENNYKTTPCVLDSDGSFFLYSKLTVDKSRWQQGNVFSCSVMHECLHNHYTQKSLSLSPGK", "modifications": "N-linked glycosylation at residue Asn297; engineered intradomain disulfide bonds between Cys343 and Cys431 and between Cys375 and Cys396", "notes": "2 extra amino acid residues at the N-terminal site due to the EcoRI site used for cloning; the substitutions are still to be applied; Fc fragment of the human IgG1 heavy chain constant region in which the CysP2 and CysP4 mutations are combined; the first letter T is position 225. numbers count on: Kabat EU numbering; Primers are in File S1; also called CysP24; FcCysP24; source: Pichia pastoris …"}},
  "molecular_target": "the molecule itself",
  "assay": "SEC; size-exclusion HPLC, TSK G3000 SWXL column, PBS with 200 mM NaCl, 1 ml/min, 50 ug protein at about 1 mg/ml; native conditions; molecular weight standards",
  "data": [
    {"protein": "B1", "values": [
      {"measurement": "stoichiometry N", "value": 2}
    ]}
  ]
}
